Measured values taken from patent US20240425618A1 (YOUCARE PHARMACEUTICAL GROUP, published 2024).

Biological target: polypeptide N52 simulating a target sequence (SARS-CoV-2, N-terminal acetyl (Ac); C-terminal amide (NH2))

B1: lipopeptide IPB24 (peptide)
peptide: SVVNIQKEIDRLNEVAKNLNESLIDLQELGKYEQYIKK
modifications: N-terminal acetyl (Ac); flexible linker PEG4 (from Fmoc-NH-PEG4-CH2CH2COOH) between the antiviral polypeptide sequence and the C-terminal K; cholesteryl hemisuccinate on the C-terminal K; C-terminal amide (NH2)
With B1 the “Tm of the complex” value was 90 °C.
